A protein production outcome set (Wang et al. 2014)

Experiment: label from the status in PepcDB records
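Also: failed if final PepcDB status was selected cloned or expressed and not failed if soluble or beyond.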

**Q.** Which protein production does the source give for “MLQNRLNKARSHAEKHDVDAIVFFNMSNVRYLSGFTGSDGAVVLGRDASWFLTDSRYTTQASRQVVGLPTVEYRIKLDGITELVREQGFRRIGFESEHTAFAVYESLRQKLPKTELVPIGEELAQLRLIKDPSECELLSRVARLASEALLSILPLVKPGAVERELALELEFAMRRAGAENASFDFIVASGERGSLPHGRASDKALAAGELVTIDFGARYEGYCSDETVTVAVGVPDERQCQIYGIVKEAHDRAIAAVRPGAELREIDRIARGYIEEQGYGAFFGHGLGHGVGLDVHEKPVVSPRGEGVAAVGMVFTIEPGIYIPGWGGVRIEDTVIVTEDGCRPITMIPKELMIL” here?
**A.** failed

**Q.** For “MPDIDAGPRCRDAGSRMFRLAHLTDPHVGPLPRPRLRQLLSKRAAGYVNWRRGRSRHHDMDLLGALIADLHGQGVDHVACTGDLCNLGLPDEWESARVFLEALGPADRVSFVPGNHDAYVRGSLEGLLAACGGWTEADDGQIRLFPYLRRRGPLALVGLSSAIPTKPFVASGRLGPVQIEAAERVLRDLATAPDRPCRVVMIHHPPHPGGAASGRELKDAAAFAAMIGRAGADLILHGHNHVGTVARITGPDGRPVPVVGAPSASARTLLTNRRASYYLYTVTPGENGFQIAVTERGLDEAGGIGELSGFDIETPPADRIGLVHRRRQRHT”, which protein production is on record?
**A.** failed

**Q.** For “MTYQQAGRIAVIKRILGWVIFIPSVLSTLISVLKFMYEHSEKKPGIDAVMMDFAHVMIEMMRFNTPFLNFFWYNSPLPDFHHSLNIGFWIIFILVFVGMALQASGARMARQAKFLREGIEDQLILEQAKGADGLTREQLAERIVVPRHTILVQYFPLYVLPVIVIVIGYFFFSLLGFL”, which protein production is on record?
**A.** failed

**Q.** For “MKRIFKGHSPWGFLSFRHAENQEPPRYLTGYTPVKRIHKAASMGDIPQVQKLLEFGNIDVNITDRKKRTALHYACAHGQSEMVSLLLWYDCNIEARDREESTALIKATQRQHEICVKILLENGADPNAVDAYHITALHYAVYNNDTAIAAKLLSFNANTEIKTKNGYTPLILAVLENKQEMVELLLRAAANINALDNCKRSALIHAVRIQSKNMISLLLQQGADPSLVDIYGATAQSYAVFETFQVLSQSPGPSCPELTTKEDKQSFDTKDGCIPHSHHIKEDNQEMEENTDDKLGSPAALKHKEKELENCEECNSEADTYPESYSKTSSAQRRSNSEPTEVDDEPSFSTKPPVAQSPMFTESSLWVGYPADWPEPVKFSRQPAVYNPTEWREDMESRSVPREESKQQVAIFPEGKEADVQTQELLSRVFKESGDNDPNLPAIENTKDELVSLLAPLEENKPQMTEFPLIEAAKFQTDVQLDRCPCFLLSLRNSLSGTLD”, which protein production is on record?
**A.** failed

**Q.** Which protein production does the source give for “MFKIQEVRELIKLIDSSNIDEFEYKKDGTTIKMKKRGNEVVAVQAPVAKQAVQPVAPVEVETTVAAAQVEVPKQEEKKAVQNENLHKITSPMVGTFYSSSSSSPDTPPYVSVGDRVSKDSIVCIVEAMKLFNEIDADVDGEIVEILVNNGQLVEYGQPLFLVKA” here?
**A.** failed

**Q.** Which protein production does the source give for “HRMDAVEVTLFEKETRVAAHQTGHNSGVVHAGLYYLPGSLKARLCRRGVTLLQQYAENKGVAYEECGKVVVAHDSSEVARMDAIFDRAVANGVPGIRKVAGEEIPEIEPHARGVAAVHSPHTAIIDYVAVAEALAADITAAGGRVLLGREVVGLDSRTAETVVTTGQGSEVFDLVVTCAGLQSDRVALMSGEPRSPRVVPFFGDYFLLEPERSSLVKGLIYPVPDPRYPFLGVHLTKRIDGRIMLGPNAFLSF” here?
**A.** failed

**Q.** Which protein production does the source give for “MKERRAPQPVVARCKLVLVGDVQCGKTAMLQVLAKDCYPETYVPTVFENYTACLETEEQRVELSLWDTSGSPYYDNVRPLCYSDSDAVLLCFDISRPETVDSALKKWRTEILDYCPSTRVLLIGCKTDLRTDLSTLMELSHQKQAPISYEQGCAIAKQLGAEIYLEGSAFTSEKSIHSIFRTASMLCLNKPSPLPQKSPVRSLSKRLLHLPSRSELISSTFKKEKAKSCSIM” here?
**A.** failed

**Q.** With “MMQPLQLSAGGFAVVLGTNEIASAVAVHLHREGCCVVMSHDPFPPVIRRKMAFHDALYGDEVTVEGVRGERVDHATQIFKALRRSDNVLVSWLALPDLLPIGAVDVLIDARMQKHRVTPDLRGLARISVGLGPGFSTAVNCDVAIETRPGRSGLIVGAGWTDAADGVASPLGGVGAERFEYSQASGRWRTAVEIGSRVFSGFTIGHLGGVPVRAPCDGILRGVVRDGQDVPQGVKLLEVDSRGRHAQWTGIDDRGRGIAKAVLRAVQPQAEIRTSYAAQPIAVFLEHHHHHH” as the sequence, how does the protein production read?
**A.** not failed

**Q.** With “MTPRRHDNDYERRKWRQVAGHFGMGAAFGALFAGIVLFNNYFGLSSVIATSEAPTLVRIIFVVGVAGSFAFMAAITGFLFLVHED” as the sequence, how does the protein production read?
**A.** failed

**Q.** Which protein production does the source give for “MKGKLGLFAAMLVLAGCATASEQLRVYTEQYPPYNMTTNGQPFAHSESEITGLCTDVLKAVLENAKVDYSIKLRDLSYGMNRAQRHEDHGIYCVSKTDEREPFFEWVGPLSSIKWTLFAKPGSSIKLDDLEDARDYRIGGYKGDVMTGYLEDKGFDVSAITNNGLNAKRLEQDQIDLWVADGLAGPYLAADASDVTGLEAVLVFRETPMYLAINKDSDPDLIKALNTAYQAMQESGEIDTISRSYGL” here?
**A.** failed

**Q.** For “MYKILEKKEIAMRNTWYKVYAPHVAKKVQPGQFVIVRAFPNGERIPLTPVMWDREEGWIVLIVFTRGKTTMRMAVELKEGDSLLNVAGPLGTPVPMEKFGKILAIGAYTGIVEVYPIAKAWQEIGNDVTTLHVTFEPMVILKEELEKAVTRHIVEPVPLNPNQDFLANMKNVSQRLKEKVRELLESEDWDLVFMVGPVGDQKQVFEVVKEYGVPMKVDLHPIMVDGTGMCGACRVTVGGEVKFACVDGPEFDAYQVDWDELIHRVGFYAKLEKLALEKYMEELKAKGVILEHHHHHH”, which protein production is on record?
**A.** failed

**Q.** For “MQVLVVGANGQVGRLLMQQLLAAGDTPVAGLKPTEDGEEWADQGLMVCKMDLLAKPEQLASAIMGMDAVIFAAGSGGQTKADMTLLIDLDGAVKTMQAAEIAGVSRFLMISMLFAEDRNRWADPLKPLYVAKFYADNWLVRQTHLDYTIVQPGALSFHAGTGLIKSDPLAVGSVPRADLAAFLVAALHAPQTIGKTIPLLSGDQSIAQVIDQL”, which protein production is on record?
**A.** failed

**Q.** With “MKGSRKGESRAKESKPREPGTRRCAKCGRLDFILKKKMGIKSGFTFWNLVFLLTLSCVKGFIYTCGGTLKGLNGTIESPGFPYGYPNGANCTWVIIAEERNRIQIVFQSFALEEEYDYLSLYDGHPHPTNFRTRLTGFHLPPPVTSTKSVFSLRLTSDFAVSAHGFKVYYEELQSSSCGNPGVPPKGVLYGTRFDVGDKIRYSCVTGYILDGHPQLTCIANSVNTASWDFPVPICRAEDACGGTMRGSSGIISSPGFPNEYHNNADCTWTIVAEPGDTISLIFTDFQMEEKYDYLEIEGSEPPTIWLSGMNIPPPIISNKNWLRLHFVTDSNHRYRGFSAPYQVKKAIDFKSRGFKLFPGKDNSNKFSLLNEGGIKTASNLCPDPGEPENGKRFGSDFR” as the sequence, how does the protein production read?
**A.** failed

**Q.** For “MARSRVAGSKEAGPKVAGSRSRAAGQGRVGARLADGLRAYRMIAGMWIRSTMAYRASFVMTTFGNFGATALDFVAILLMFSQVDALGGYTLPEIAFLYGVAGIAFGLADLAIGSMDRLGRRVRDGTLDTLLVRPAPVLAQVAADRFALRRLGRITQGLLVFGYAVAALDIAWTPLKVLMVPFMMLSGGAIFAAVFVAGGAFQFVAQDASEVQNSFTYGGQTLLQYPPTVFAADLVRGVTFVVPIAFVNWLPALYVLGRPYPLDLPTWVAFTPPLVAAACCALAGLAWRAGLRSYRSTGS”, which protein production is on record?
**A.** failed

**Q.** Which protein production does the source give for “MQPYEKYLKLNSQKLRADQTDTERKLWQRINRDQLLGFRFNRQKPLLSYIVDFYCAKTKLIIELDGSQHYKPDYQEKDALRDAELNSLGFTVMRFSNDEVMREIEAVVEQIYLFLENVRTD” here?
**A.** failed

**Q.** With “MKLHLTNLYGMAGDSTVILAQNAVQKIASQLGFREVGIYFYNIASDSPSEMNKRLDGIMASISIGDILVFQSPTWNGFEFDRLLFDKLKDMQVKIICFIHDVVPLMFDSNYYLMKDYLYMYNLSDVLIVPSERMKTRLMEEGLTTKKILVQGMWDHPHDLSLYTPAFKKELFFAGSLERFPDLQNWSQDTPLRVFSNKGEASSSARSLSIEGWKKDEELLLELSKGGFGLVWGTHQNEGESNQYYTLNISHKVSTYLTAGIPVIVPSSLSTAKFIVDQGLGFMADSLEEVHEIVDKMNLQEYQEMTNRIKTFSYLLKEGYFTKKLLVDAIYHLGID” as the sequence, how does the protein production read?
**A.** failed

**Q.** For “EIEICPKVTQSIHIEKSDTAADTYGFSLSSVEEDGIRRLYVNSVKETGLASKKGLKAGDEILEINNRAADALNSSMLKDFLSQPSLGLLVRTYPELEEGVE”, which protein production is on record?
**A.** not failed

**Q.** With “MWIAVSAVNLALAVILGAFGAHGLKAYASPAKLAWWQTATDYFFYHALGLLVLGVISKTYTVLPIKSSFILIQIGILFFCGSLYLMALGLPRGFGAITPIGGAFMILGWIVLAWNAVKYAK” as the sequence, how does the protein production read?
**A.** failed

**Q.** Which protein production does the source give for “MKPMEAAMGLIRFCLLFLALATPVNAAKLFLTTEVYPPYNLQASDGSVHGVYFDQLKIVLQDTDTDYEVAVMPWARAIALATTQAMHCVFATARTPEREKLFKWVAPIHTDRNILVARREANIEASSLEDARRYRVGTQRGDYTEALLEKLGFPQVDVGADFEITLNKLKLGRIDLMPMSESTLKSLPANSFKEVITLSRQQLGLACNKTVPDQIIAKLQARLDKLIADGTQQQIFDRYSLVSP” here?
**A.** failed

**Q.** With “MASASFSAVSSLSYQFRSKEAIFSSKASCFSSTALSGRRVFGSIKAAQVTSHENPRRRTQNVEGDIFVDNTCIDCDTCRWMVPDLFTRVDNMSAVTKQPTCKEERLNALQALLSCPTGSIRTQTPPADIGEAQETFPLVVDKDTLPGVFHCGFHSKKSYGATSYLILHREGNILVDSPRYVEKLAGKIEMKGGVRYMFLTHRDDVADHKKWADRFKSTRILHSDDVEPSTSDVELKLEGSGPWSIYEDVELIHTPGHSEGSVCMFHKSLKALFTGDHVIMTESGLSILEQYNHGSVPLQLENVEKLINLDFNWLIPGHGRRVHFKDGDEKAKNLEALVQKHREKQLVSFSKSGKA” as the sequence, how does the protein production read?
**A.** failed

**Q.** For “MKIGVLGLQGAVREHVRAIEACGAEAVIVKKSEQLEGLDGLVLPGGESTTMRRLIDRYGLMEPLKQFAAAGKPMFGTCAGLILLAKRIVGYDEPHLGLMDITVERNSFGRQRESFEAELSIKGVGDGFVGVFIRAPHIVEAGDGVDVLATYNDRIVAARQGQFLGCSFHPELTDDHRLMQYFLNMVKEAKMASSLK”, which protein production is on record?
**A.** not failed

**Q.** With “MISLRTFLITFLVNIALLGIFWGNRMNFVDVVIFSFFSALFVSLATHILVTSRLRKLREAVARKSRFEDFLNDEITKLAEEVNSVVENSLIQEKETEKLKDIVTGFVHDVKSLVWNEVEDENLQKIIEEFYEFAKLEAGLERLRKEPVNLVELVNDVVEKFPGKVIFKYDDVVEVEADPMKLFRAFYNVIENAVKYSSGPVEVHVKKDRIIVKGPGPEIPYEVRANLFEKKKKSKGTGLGLYLAREFFEMHGFRIAYRREGNHNVFEIYTGYTGMSSVKSERDSR” as the sequence, how does the protein production read?
**A.** not failed

**Q.** For “MRIGIISVGPGNIMNLYRGVKRASENFEDVSIELVESPRNDLYDLLFIPGVGHFGEGMRRLRENDLIDFVRKHVEDERYVVGVCLGMQLLFEESEEAPGVKGLSLIEGNVVKLRSRRLPHMGWNEVIFKDTFPNGYYYFVHTYRAVCEEEHVLGTTEYDGEIFPSAVRKGRILGFQFHPEKSSKIGRKLLEKVIECSLSRR”, which protein production is on record?
**A.** not failed

**Q.** For “VLKQGYMMKKGHRRKNWTERWFVLKPNIISYYVSEDLKDKKGDILLDENCCVESLPDKDGKKCLFLVKCFDKTFEISASDKKKKQEWIQAIHSTIHLLKLGS”, which protein production is on record?
**A.** not failed

**Q.** For “MDELRQKLQYSSFELEAVKAKANEETKLHQEEVKNLLHLLKLARQERDEAKDQLQKLLTIKTNSSITESNSHGSSPVDSFFEPVSSSEFSNFNMVPEPINQVKFKNRQQLVNRNLKKIDPVDALMDEIIKGKALPEKGKLLQTVMESGPLLQTLLVAGPLPRWRNPPPLQQSFRVPPISNSYGCLPATTTTSMLNFRGCSVPRIATGIEVATKRQRFH”, which protein production is on record?
**A.** failed
